The source of these data is patent US20130289246A1.

What all share (assay): cell-based or functional assay
Assay [1] deals with HA of A/California/04/2009 (H1N1) virus (Influenza A virus (H1N1)).
In assay [2] the target is HA of A/Vietnam/1203/2004 (H5N1) virus (Influenza A virus (H5N1)).
Assay [3] concerns the target HA of A/Alabama/1/1981 (H3N2) virus (Influenza A virus (H3N2)).
Assay [4] deals with HA of A/Hong Kong/1/1968 (H3N2) virus (Influenza A virus (H3N2)) (UniProt Q91MA7).

For murine hybridoma mAb S139/1 (antibody), the HAI activity was greater than 50 µg/mL in assay [1], greater than 50 µg/mL in assay [2], greater than 50 µg/mL in assay [3] and less than 0.2 µg/mL in assay [4].
